Laboratory results reported in the FLAb antibody collection (doi:10.7554/elife.23156).

B1: scFv; the commonest letter at each place (parent)
chain 1: EVKLDETGGGLVQPGRPMKLSCVASGFTFSDYWMNWVRQSPEKGLEWVAQIRNKPYNYETYYSDSVKGRFTISRDDSKSSVYLQMNNLRVEDMGIYYCTGSYYGMDYWGQGTSVTVS
chain 2: DVVMTQTPLSLPVSLGDQASISCRSSQSLVHSNGNTYLRWYLQKPGQSPKVLIYKVSNRFSGVPDRFSGSGSGTDFTLKISRVEAEDLGVYFCSQSTHVPWTFGGGTKLEIK

Columns and labels:
fluorescein = variants of: B1; test: Kd (Tite-Seq); settings: with fluorescein; format: scFv 4-4-20, heavy + light
[1] = variants of: B1; test: yeast surface expression (ratio to wild type); higher = more expressed; settings: format: scFv 4-4-20, heavy + light

Variant | Kd (fluorescein) | yeast surface expression [1]
chain 1 F29Q V37M | 0.00239 µM | 1.09
chain 1 D31H V37Q | 0.00128 µM | 0.928
chain 1 D31H V37I | 0.00062 µM | 0.799
chain 1 G104I D106N G109F | 0.345 µM | 0.094
chain 1 G100M M105P Y107D | ≥ 10 µM | 0.325
chain 1 N35K V37K | 6.96 µM | 0.0981
chain 1 G100K G104C | 4.6 µM | 0.182
chain 1 G100K G104H | ≥ 10 µM | 0.322
chain 1 D106L W108M | ≥ 10 µM | 0.541
chain 1 D106L W108I | ≥ 10 µM | 0.314
chain 1 S101A G104N | ≥ 10 µM | 0.72
chain 1 F29Q M34W | ≥ 10 µM | 1.56
chain 1 N35L V37P | ≥ 10 µM | 0.67
chain 1 S101G Y107K | ≥ 10 µM | 0.907
chain 1 G104K G109C | ≥ 10 µM | 0.195
chain 1 S101T | ≥ 10 µM | 0.88
chain 1 S101G | ≥ 10 µM | 0.901
chain 1 M34K V37W | ≥ 10 µM | 0.494
chain 1 S30K N35I | ≥ 10 µM | 0.879
chain 1 S101L G104I | ≥ 10 µM | 0.452
chain 1 D31E V37L | ≥ 10 µM | 0.735
chain 1 S30Y N35C | ≥ 10 µM | 0.686

Variant | Kd (fluorescein) | yeast surface expression [1]
chain 1 S30G W36S | 1.47 µM | 0.275
chain 1 G100L Y102W | ≥ 10 µM | 0.497
chain 1 G100I G109A | ≥ 10 µM | 0.429
chain 1 G100I G109I | ≥ 10 µM | 0.25
chain 1 D31C V37K | ≥ 10 µM | 0.453
chain 1 S30H V37F | 0.0562 µM | 0.754
chain 1 F29H N35V | 0.00251 µM | 2.76
chain 1 S101M W108G | ≥ 10 µM | 0.228
chain 1 S30N M34I | 0.00293 µM | 0.954
chain 1 S30M N35M | ≥ 10 µM | 0.654
chain 1 F29H W36Q | ≥ 10 µM | 0.693
chain 1 S101C G109D | ≥ 10 µM | 0.328
chain 1 S101I Y102M | ≥ 10 µM | 0.621
chain 1 D31L Y32H N35V | ≥ 10 µM | 0.343
chain 1 S101C Y107S | ≥ 10 µM | 0.457
chain 1 D31S M34I | 0.004 µM | 0.757
chain 1 F29T | 0.00941 µM | 0.981
chain 1 F29R S30L | ≥ 10 µM | 0.654
chain 1 G100N D106N | ≥ 10 µM | 0.287
chain 1 F29P Y32I M34L | ≥ 10 µM | 0.858
chain 1 M105A D106V | ≥ 10 µM | 0.494
chain 1 F29N V37D | ≥ 10 µM | 0.229

Variant | Kd (fluorescein) | yeast surface expression [1]
chain 1 G100D Y107V | ≥ 10 µM | 0.406
chain 1 F29I W36L | ≥ 10 µM | 0.729
chain 1 S101I Y103P M105E | ≥ 10 µM | 0.462
chain 1 D106T W108Q | ≥ 10 µM | 0.5
chain 1 G104V Y107K | ≥ 10 µM | 0.324
chain 1 F29T Y32R | 1.14 µM | 1.06
chain 1 G100V W108V | 0.000846 µM | 0.892
chain 1 S30V D31M | 0.0372 µM | 0.223
chain 1 S30H Y32C | 9.5 µM | 0.722
chain 1 S30N W36C | ≥ 10 µM | 0.445
chain 1 G104M W108V G109T | ≥ 10 µM | 0.212
chain 1 F29L S30C N35A | ≥ 10 µM | 0.89
chain 1 S30E D31S | 0.00239 µM | 0.987
chain 1 N35F V37A | ≥ 10 µM | 0.871
chain 1 G100W Y107R | ≥ 10 µM | 0.229
chain 1 D31V N35C | ≥ 10 µM | 0.424
chain 1 S101F Y102A | ≥ 10 µM | 0.623
chain 1 S30R Y32W | ≥ 10 µM | 0.811
chain 1 S30F N35C | ≥ 10 µM | 0.555
chain 1 F29A S30V | 3.94 µM | 0.758
chain 1 G104A D106K | ≥ 10 µM | 0.362
chain 1 F29N N35A | ≥ 10 µM | 0.862

The next lines start with results.

Kd (fluorescein) | Variant | yeast surface expression [1]
≥ 10 µM | chain 1 T28F W36H | 0.598
≥ 10 µM | chain 1 Y103V D106H | 0.384
≥ 10 µM | chain 1 Y32C M34T | 0.664
≥ 10 µM | chain 1 Y32C M34P | 0.562
≥ 10 µM | chain 1 Y32C M34Y | 0.843
0.00746 µM | chain 1 W36F V37N | 0.509
≥ 10 µM | chain 1 S101V Y103F D106V | 0.283
≥ 10 µM | chain 1 T28W Y32W | 0.65
≥ 10 µM | chain 1 T28L W33Y | 0.826
≥ 10 µM | chain 1 Y102C G109R | 0.304
0.00204 µM | chain 1 Y103M Y107W | 0.871
≥ 10 µM | chain 1 Y32R M34S | 0.191
≥ 10 µM | chain 1 W33S N35I | 0.495
≥ 10 µM | chain 1 Y102I Y103E G109K | 0.364
≥ 10 µM | chain 1 Y102T D106P | 0.351
0.0171 µM | chain 1 Y103F W108K | 0.318
8.56 µM | chain 1 Y102Q M105I | 0.843
≥ 10 µM | chain 1 T28E Y32V | 1.14
≥ 10 µM | chain 1 W33H M34V V37L | 0.434
0.0259 µM | chain 1 V37F | 0.9
≥ 10 µM | chain 1 W108E G109V | 0.33
≥ 10 µM | chain 1 Y107I W108S | 0.786
≥ 10 µM | chain 1 Y103W M105T | 0.915
≥ 10 µM | chain 1 Y103C M105G | 0.611
≥ 10 µM | chain 1 W36H V37F | 0.307

Kd (fluorescein) | Variant | yeast surface expression [1]
0.00104 µM | chain 1 T28I S30M | 0.769
≥ 10 µM | chain 1 T28N M34E V37L | 0.571
≥ 10 µM | chain 1 Y32P N35Y | 0.488
≥ 10 µM | chain 1 S101Y W108V | 0.397
0.000454 µM | chain 1 T28V S30D | 0.917
≥ 10 µM | chain 1 W33E M34W | 0.966
≥ 10 µM | chain 1 T28A Y32V | 1.32
≥ 10 µM | chain 1 Y103L M105G | 1.02
≥ 10 µM | chain 1 S101V M105H W108H | 0.3
0.345 µM | chain 1 T28N Y32G | 1.19
≥ 10 µM | chain 1 S101V G109P | 0.223
≥ 10 µM | chain 1 W33I N35W | 0.803
0.0624 µM | chain 1 T28S F29A | 0.957
≥ 10 µM | chain 1 T28K D31I | 0.645
≥ 10 µM | chain 1 W33Y M34I | 0.771
0.167 µM | chain 1 Y103L G109S | 0.855
≥ 10 µM | chain 1 T28P Y32D W36I | 0.789
≥ 10 µM | chain 1 Y102H D106I | 0.595
≥ 10 µM | chain 1 S101Y G104T | 0.261
≥ 10 µM | chain 1 W33E N35C | 0.797
≥ 10 µM | chain 1 Y32K W33I | 0.763
0.021 µM | chain 1 Y102K | 0.81
≥ 10 µM | chain 1 Y102P | 0.77
0.0107 µM | chain 1 Y102V | 0.936
≥ 10 µM | chain 1 Y103I M105E | 0.733
